Results: the domain aggregation screens of Martell et al. (2025)

Assay: soluble fraction after stress (log2 fold change); higher = more stays soluble; pooled small domains, quantitative proteomics
Conditions: stress: 50 degC
Procedure, shortened: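 Quantitative proteomics served as the high-throughput read-out for pooled custom libraries of small protein domains. Each was stressed at 50°C. Aggregation propensity is expressed as the base-two log fold change in soluble protein after stress. A higher value means a larger share of the protein remains in solution.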

Sequence	soluble fraction (log2)
HMEPDEIVLDHRKRIENSDAIVLIAPIWNFRMPAILEGWIDKVLAPPWAFKFKKLFGNYGYPVGNLKG	0.103
HMSDSISLTLNGDLRRFRAHATIADLVRDIGLDPVKVAVERNLEIVSRSTLEDVVLADGDRLEIVHFV	-1.33
HMIFTPNGDRVNDVFEIEMGVKLEFQIIILNQQNQTVFKSADPDFKWDGTMLNGEPAPSGTYLYYFSAKD	0.0847
HMIALKNLREEKRMTQAELSKDLEISPSAIGMYEQGRRVPDVSTLKKISAYFNVSIDYLLGNSTSKDI	-0.018
HMEKSLSAQVYEKIKAGIISLKYPPGSVLKERELSESLGVSRTPVREAIQRLSQESWLVPGEGKRMQVRP	0.134
HMESWEDSNIANEFKSTIKIAEKRLAEGGDHPELLEKLEALKQAIINENQTEASKLDDQVNDILFDMDD	-0.0057
HMRMETRILTADESGIRLDAFLASRLAVSRSLAASLIDDGNVTLNGTVPKKKTAVNVGDILEVAMP	-0.234
HMGTRPIQIASFSKEENAKRAVEALAKIGITAQPQKSGSATKAVWGVVANGDADLLAKIKAAGFADAYFL	0.0667
HMGVRVEVDAVTPPGAMASGSVVFSDGESKKWSVDQFGRLAMTGGAPDYKPSDQDVMEFQQQLEQSL	0.054
HMTFAPTAIPSLTRPMEELMSWSFTPNEAFILSRINGLWDVRSIAKISPFPEGEVLRVFEKLHDGGLIRW	-2.92
HMFETLVLALAQAWPAERGPVEALQFEGGRLSLQRSGFADEQVEALRQRLSSEGWTLQTEQGRLILNKAG	-0.884
HMPLVIIRGIEGVFSSEEKAEAIRKVTDALVSVKGENVRGFAWVVFEEVKSGDWGIGGESITAEKVIMSL	-0.0828
HMRTYEHALTEEEKELILIVSNLSEYKSLPPSQIVPKLADLGIYIASESSFYRVLRAHNQLHHRGR	-2.56
HMQLVPGIGRLSARELEVFTLIGRGLGTSEIGKKLGVSAYTVQTHRNHIKEKLNLPNAAAITYWAIQWAHG	-2.14
HMKELVEDFASRISNARQSKGWNQSELAKRMAETVNVVKSAESGKSPTDSVIKKLERVLGIILM	-0.591
HMRPQELSSLNTNQMRLYNSLPEAFITAEAKDIADKLRYSERSLFRFLNESNLFTKTEHGSYAKKA	0.133
HMVSKQVTVNGIQYYQYTVQKSEGFYAISTKFGVTQDDIILANPSTKEGLRVGQEILIPIKT	-0.186
HMQISNEEELEKIIENVIESNPEKVKAYQSGKSGLIGFFMGQVMKESGGQANPNLVNQILKGKL	0.202
HMNVAETITLGKRLFNHALTILGKKQRNISRKQLKNFLNDLGLKDSKDLYESIGTGDKNPILMAQLLLG	-0.509
HMSDGIPDLRNLNFLSPQEGDYLNESDRVFGVTINGDGQAYPLRIVNAHEMVNDTLGGEPISLM	0.16
HMVINVKEILERIKLVKGFHTQIEIARFLGVSKGTISNWLARNSVDFPLVISKLDGVDLNWLFTGIGMPQ	-3.18
HMVRDGDTFVVPKMDRFARNVEDTLHLVRELTERGVIFQMGHTVYDPHDPWSKLFLTFLAAIAEA	-0.00927
HMEPERRHLEVPAEAEGERIDRFLASQLENLSRSRIQALIKAGYVRNRRGTIEDPGLRVKPGDAFVVDLPP	0.44
HMAEVRTLLVPIELAGMRFDQVLAELLPEFSRSRLAAWIKSGDALLDGHDAKPKGVVRGGEQIEIRLA	0.0321
HMKKATYDVMVREALVSFKKKGATLQSIKKKIKADYAIEANATAVKSAIQKGMEAGSIRKSYDLYFFMD	-2.12

Sequence	soluble fraction (log2)
HMQMSWDAVKARLQDIVNNEDKTKPFNDEMLASKLKEQGIEIARRTVVKYRQQLGIPAARLRKK	-0.468
HMRTDQYHYLAWKQVADELGIPFDEQVNERLRGVSRMASFDIILERYDGTMSDEEKIHWTDKKNEIYKSM	-0.948
HMELNGVSETAKSVYSIILNNSSTVDDIVIKTKLPAAKVMQALTELELNDAVERKSGGVYALP	0.13
HMQMLQDPFLNALRKEHVPVSIYLVNGIKLQGQVESFDQYVVLLRNTSVTQMVYKHAISTIVPARAVSL	-0.403
HMGSYVVQLGAFAIRANAEKLAREVDGSIATSGRFSLVRVGPFTSRGQAEQALAKLRARGYSDALIHSL	-0.224
HMESRETGLPVVIISDGRILQDNLKRRGLDLSWLDKQLAEHGYPDFRDVFLLTVDEAGGVYFVPRE	0.333
HMKNANGYGSITKLKGNRRKPYMVRITVGRDENGFPIRKVLGYYSSKANAVAALSDYNREPYDI	-0.667
HMYSYNKEEVGKRIKSIRQQKGLTQESFGELFGASKGNVATWEKGISLPNASRLREIADLVSITVEELLYG	-0.346
HMGMVDKSMYSRYDVGDLVKVLRGPLEGSEGHITEINTDTGTVKVETVFFGRSTVVEVDFSEIDK	-0.281
HMDNIKRGEMFYISRGGASYSGSEQHSDRPAVVVSNDKNNENSNVVEVVYMTTQPKTDLPTHVTVR	0.0894
HMSPGAKIEVTGNTVNLRAGPGTNYDTRGQVKKGEQLPLLGEQGGWYRVQTSRGVAYLAGWLARVLT	0.0409
HMQNMVYVATKDIPAGGVIDQDSVSKTAISTSIDTSLYITDDDLGKIAVVNISQGQSVFSNMVGT	0.0238
HMENQFNDWSLTPSEKEVALFMLKGLSTQEIAAARNTKEKTVRQQASAVYAKSQLDGRYALAAWFFEDI	-0.567
HMLIPTISVTKEGQLRFENIPVSWEELGTRLRDVSDLDKIKIYADAESDALTISEIMKTAANVGIVQFVLV	-0.578
HMYDFGVILQKLRKEKGFTQEQLARLIHKESSIISRYEKGLQNPTFETVKEFAAIFNVSMDYLAG	-1.25
HMTTTPAERQRTILRSLNRVDPVSVDALARLTGVSVVTIRRDLSDLASRDLIRRVHGGALLPTR	-0.917
HMGSKQVSVPDVRNLDYERASQQLREAGFVVGDVLRIRDDRAPAGTVIAQSPAAPALVPENARVSLLVSSG	0.251
HMRILGIDPGTRITGYGIIDIEGNRLRHVDNGIIKTRSSDALPLRLKVIYDGLTAVLKQYSPQAV	0.0465
HMNRYPIQTEVHAFNDDIIKEAINFEMSRGGQIFFVNNRIPQLYELENTIHRLVPDARVVIGHGQMP	-0.188
HMTNPPITTEARNLVVEQLKELNALHPEKARELADSYKKEFNVPKVIGHITEARHGEFLALAISKIDES	-0.144
HMDAEVEHLFRIIAELKEKNVAIIYISHKMDEIFRISDDITVYRDGEYIATDRAENLNVDKVIQLMVGREV	-0.339
HMSENLESEFFGIVVITQTLLQKELRDKPMTVELIRKTVEDVMSKHYSDSSVDKAKVEEELIRRFSTW	-0.164
HMTAQASDIEKVLQVIETLGFRGHTLPGENRTAIGVTGNRGSIDPAHFENLPGVADAIRVTKPY	0.0639
HMEMVSMPGLTGSTLEFATKTLTENELKYEVVYIVDASAESGLIIRTYPTEGEMVSKKTSTIYLYIKE	-0.756
HMDIVIPIQVKNVSSGEVLDFPSIRAAARDLKFPKTTISLGVRYAGEKAYKGFVMRYRSDDPWPIVQES	-1.93

Sequence	soluble fraction (log2)
HMSTALTPLTTREREVLALMAEGLTNSGIAARLVLTDRTVETHVSRILHKLGLGETTTNEHRRVLAVLRYL	-1.5
HMGASALTEREREVLRLLEGGGSDKRIARQLAISEHGVRYHLKSIYKKLGVHDRVSAIAAGRRLAS	-0.21
HMTLDSLEKLSVNDLEKMLVNMPVGYKTIFLLSVIDEYSHKEIGELLGITPETSRSQLFRAIKWIKTNIF	-0.428
HMTQLEVDLFERLITISGVGPRLALAVLSGLEPPDLLRAIQDSDIVRLQGIPGVGKKTAERISLELKDKLS	-0.963
HMPPFDDILAEYYEPLYRHVRRMVVSHDDAKDVMQEAMLRIFQGLDGLKDPSAVRTWVWRIATNEALRH	0.0662
HMTPKVAVPSFVGWKFEDVERQLGTMGLIRGKVDNHPSEEYSEGRVIWQSVLGEVEKGKVIDFWVSTGPE	-0.0362
HMHGEAVVVPNVKGLPMRQAENEIYKQSLKAVAIDSSYVKGMPPGAILEQNPAGGSKVKKGRTVYLTINMD	-0.0918
HMDETELLLQKAIATLPDKQRVVFNLKYFDEMKYEEMSELLETSVGALKASYHLAVKKIEQFFHDA	-0.643
HMSMFTPAQVAQTLTVPPSTLRRWAKRFAPFLSPQSGKKRTYTVADLDTFQRIKELSAQGYTFAQIDQAL	-0.738
HMQQIAVDLSEFKPRLMRDMSSMLAGLYTHDLDLSSLDFSKVANFTFMFRGAIITGTLKMPKI	0.00375
HMDAAYVYVIGTRVNQRAGPSTSNAVMGVLSEGTRVETLRDEGQWTQIRSNFGTGWMSSSFLSSVAP	-1.55
HMINLVPFELKFITAQVLDDIIKKIGINADTIILDINPKKIWVYAGEQELSDIQNIVKNVDVEDNI	-0.443
HMDREILWTNYVAARKQEFIASSIDTIGAEYLDNRRFWDTQFEREWTIIAERLASGFGLTDDILSIVGSDF	-4.12
HMETLKEMDSKGAINASEVNVREGAGTSSSKMYSLSKGASVDVTGIKGDWYRVHTSKGTGYVLAKYVTLVS	-0.0779
HMGSLGRAIRSRREKMKVGLEELAAKTGLSESHISDIEEGRGFAPVGDILKIARALTIDPGELLK	0.361
HMGGTATDYYNQGRTAYDVGDYNGALMNFQEAVRLDPRYGEAYYGLGKAYEALNMQNQALDAYLSAI	-0.16
HMDSYSILGIEKESSMEDIEKAYIDKISKIKKEVKNEKNAAAFEAVLTKAYNDILSQKENISEEQELAE	0.011
HMGLASEVKTEDVLNEEKYDFEPDLIGNNNEAIYQNKQTGSYVLFDRNQNKVTKVLSAGEVLNHSKYNE	-0.0697
HMATLQLPVPKITLYPGELIRSDHLTDQRFNARALYHSAVYKSREDIVGKVARRTLLPGQPIPVNALR	-0.057
HMNQEQQSAVMSALKATLPDLEAALEARQFKESKQLLKTAQNQFQQLDGRNRRGFQARIQLLAGQFRELS	-0.227
HMEVGKRIAEIRKENRMSQEQFGQLFHVTRQTVSNWENAKSYPDLQTLVKISELFEITMDELLK	-0.511
HMGDLTVPDLSGLTVDQAKQRLKDMGLVLGKITTQEDSSKPDGVIISQSPSADGKINKGQLVDVVVNKLS	0.0463
HMAGASQAVKAQLRLREMILAGELPGGARIAELTLVEKLGVSRTPIRAALMRLEQEGLLHRLPGGGYAVRT	-0.52
HMSNYIVELSSSEKIDDIDNNNNLINSFFSKSDSQWEYKLVFKNKNEMDVFVKKISTNNKIISYKTSS	0.149
HMNSGFEVFREVVNQGSFIGAANALGISAPAVSKQIKLLENRLGLLLLYRTTRNVTLTDIGKQLFDTLDNS	-1.97
